Source: US20240368242A1

Molecular target: recombinant murine CD40 protein (murine) (UniProt P27512)
Test: SPR, binding to mCD40

recombinant murine CD40 protein (murine), sequence (P27512 24-193 limits assumed): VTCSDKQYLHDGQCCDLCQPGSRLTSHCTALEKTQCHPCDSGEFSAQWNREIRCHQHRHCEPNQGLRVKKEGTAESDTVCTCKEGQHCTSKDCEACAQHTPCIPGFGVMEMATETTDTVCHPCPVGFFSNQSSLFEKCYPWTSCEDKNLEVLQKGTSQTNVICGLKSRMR

B1: mCD40L-Fc (Fc fusion, from a related filing)
chain: MQRGDEDPQIAAHVVSEANSNAASVLQWAKKGYYTMKSNLVMLENGKQLTVKREGLYYVYTQVTFCSNREPSSQRPFIVGLWLKPSSGSERILLKAANTHSSSQLCEQQSVHLGGVFELQAGASVFVNVTEASQVIHRVGFSSFGLLKL
modifications: left off: a dimerising Fc or GST
Q: What does the source list for B1?
A: Kd: 3.23 nM; koff: 9.81e-05 s⁻¹; kon: 30400 M⁻¹ s⁻¹
